According to article PMC10902354, “Deficiency in PHD2-mediated hydroxylation of HIF2α underlies Pacak-Zhuang syndrome” (Communications Biology, 2024):

Target: T1, Alexa 647 labeled PHD2 (catalytic / prolyl-hydroxylase domain, residues 181-426) (human, UniProt Q9GZT9 181-426, Alexa Fluor 647 N-hydroxysuccinimide ester dye, 1-2 dye molecules per protein molecule)
T1 construct: PHD2, prolyl-hydroxylase domain (catalytic domain), residues 181-426, from pET-46-HIS6-PHD2; Same construct as m2, dye-labeled for MST; also called PHD2-647; source: E. coli BL21(DE3), purified (Ni-NTA, thrombin cleavage, Superdex 75), labeled with Alexa Fluor 647 NHS ester
T1 sequence (Q9GZT9 181-426): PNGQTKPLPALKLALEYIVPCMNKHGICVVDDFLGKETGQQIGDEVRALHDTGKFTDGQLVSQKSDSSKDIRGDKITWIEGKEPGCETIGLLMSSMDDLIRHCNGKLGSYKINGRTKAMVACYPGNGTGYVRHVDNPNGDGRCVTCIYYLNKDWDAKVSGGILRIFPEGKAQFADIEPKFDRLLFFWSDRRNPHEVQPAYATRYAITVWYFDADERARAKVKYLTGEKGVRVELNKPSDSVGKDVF
Assay: MST; 25 nM Alexa 647 labeled PHD2, unlabeled peptide in 16 two-fold dilutions; room temperature; MST Buffer 50 mM Tris-HCl pH 7.5, 1 mM NOG, 10 µM FeSO4, 5 mg/ml BSA mixed 1:1 with peptide in 50 mM Tris-HCl pH 8.0; 1:1 Kd model; triplicate
Conditions: both partners purified

Row | Binder | Kd [µM]
1 | Ac-ELDLETLAPYIPMDREDFQL-NH2 (peptide, UniProt Q99814 523-542, looked up, HIF2α (EPAS1) CODD peptide, human, as m3 with the disease mutation G537R (Class 2); also called HIF2α G537R; source: synthetic peptide (Genscript, ≥95% purity)) [HIF2α-CODD G537R peptide] | 175 ± 20
2 | Ac-ELDLETLAPYIPMDWEDFQL-NH2 (peptide, UniProt Q99814 523-542, looked up, HIF2α (EPAS1) CODD peptide, human, as m3 with the disease mutation G537W (Class 2); also called HIF2α G537W; source: synthetic peptide (Genscript, ≥95% purity)) [HIF2α-CODD G537W peptide] | 83 ± 9
3 | Ac-ELDLETLAPYIPMDGEYFQL-NH2 (peptide, UniProt Q99814 523-542, looked up, HIF2α (EPAS1) CODD peptide, human, as m3 with the disease mutation D539Y (Class 1); also called HIF2α D539Y; source: synthetic peptide (Genscript, ≥95% purity)) [HIF2α-CODD D539Y peptide] | 381 ± 50
4 | Ac-ELDLETLAPYVPMDGEDFQL-NH2 (peptide, UniProt Q99814 523-542, looked up, HIF2α (EPAS1) CODD peptide, human, as m3 with the disease mutation I533V (Class 2); also called HIF2α I533V; source: synthetic peptide (Genscript, ≥95% purity)) [HIF2α-CODD I533V peptide] | 167 ± 29
5 | Ac-ELDLETLAPYIPMDGENFQL-NH2 (peptide, UniProt Q99814 523-542, looked up, HIF2α (EPAS1) CODD peptide, human, as m3 with the disease mutation D539N (Class 1); also called HIF2α D539N; source: synthetic peptide (Genscript, ≥95% purity)) [HIF2α-CODD D539N peptide] | 760 ± 274
6 | Ac-ELDLETLAPYIPMDGEDLQL-NH2 (peptide, UniProt Q99814 523-542, looked up, HIF2α (EPAS1) CODD peptide, human, as m3 with the disease mutation F540L (Class 2); also called HIF2α F540L; source: synthetic peptide (Genscript, ≥95% purity)) [HIF2α-CODD F540L peptide] | 229 ± 25

The next lines start with the values.

Row | Kd [µM] | Binder
7 | 221 ± 19 | Ac-ELDLETLAPYILMDGEDFQL-NH2 (peptide, UniProt Q99814 523-542, looked up, HIF2α (EPAS1) CODD peptide, human, as m3 with the disease mutation P534L (Class 2); also called HIF2α P534L; source: synthetic peptide (Genscript, ≥95% purity)) [HIF2α-CODD P534L peptide]
8 | 41 ± 5 | Ac-ELDLETLAPHIPMDGEDFQL-NH2 (peptide, UniProt Q99814 523-542, looked up, HIF2α (EPAS1) CODD peptide, human, as m3 with the disease mutation Y532H (Class 2); also called HIF2α Y532H; source: synthetic peptide (Genscript, ≥95% purity)) [HIF2α-CODD Y532H peptide]
9 | 153 ± 10 | Ac-ELDLETLAPYIRMDGEDFQL-NH2 (peptide, UniProt Q99814 523-542, looked up, HIF2α (EPAS1) CODD peptide, human, as m3 with the disease mutation P534R (Class 2); also called HIF2α P534R; source: synthetic peptide (Genscript, ≥95% purity)) [HIF2α-CODD P534R peptide]
10 | 154 ± 17 | Ac-ELDLETLAPYIPIDGEDFQL-NH2 (peptide, UniProt Q99814 523-542, looked up, HIF2α (EPAS1) CODD peptide, human, as m3 with the disease mutation M535I (Class 2); also called HIF2α M535I; source: synthetic peptide (Genscript, ≥95% purity)) [HIF2α-CODD M535I peptide]
11 | 345 ± 247 | Ac-ELDLETLAPCIPMDGEDFQL-NH2 (peptide, UniProt Q99814 523-542, looked up, HIF2α (EPAS1) CODD peptide, human, as m3 with the disease mutation Y532C; also called HIF2α Y532C; source: synthetic peptide (Genscript, ≥95% purity)) [HIF2α-CODD Y532C peptide]
12 | 23 ± 2 | Ac-ELDLEMLAPYIPMDGEDFQL-NH2 (peptide, UniProt Q99814 523-542, looked up, HIF2α (EPAS1) CODD peptide, human, as m3 with T528M; also called HIF2α T528M; source: synthetic peptide (Genscript, ≥95% purity)) [HIF2α-CODD T528M peptide]
